The results in this text go back to US20260241018A1 (BIOCYTOGEN PHARMACEUTICALS BEIJING, published 2026).

The target of test [1] is T1, 5T4 on NCI-H226 cells, NCI-H2030 cells and HCC827 cells (UniProt Q13641 32-420, limits assumed).
T1 construct: whole, on cells
T1 sequence (looked up): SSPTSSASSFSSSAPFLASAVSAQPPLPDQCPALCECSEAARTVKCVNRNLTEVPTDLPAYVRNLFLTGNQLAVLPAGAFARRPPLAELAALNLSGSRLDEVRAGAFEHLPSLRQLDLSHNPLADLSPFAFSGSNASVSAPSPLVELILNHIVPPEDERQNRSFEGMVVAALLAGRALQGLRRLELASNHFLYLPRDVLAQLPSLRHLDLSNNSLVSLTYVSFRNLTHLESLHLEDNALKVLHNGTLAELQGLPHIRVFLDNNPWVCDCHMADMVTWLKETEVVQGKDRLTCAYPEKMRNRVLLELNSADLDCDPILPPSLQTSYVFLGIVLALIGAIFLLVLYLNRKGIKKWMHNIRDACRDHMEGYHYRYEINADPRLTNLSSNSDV
The experiment in a line: flow cytometry on NCI-H226 cells, Alexa Fluor 647 anti-human IgG Fc secondary antibody, MFI. The protocol:
NCI-H226 cells, NCI-H2030 cells or HCC827 cells were plated in a 96-well plate at a density of 2×10⁵ cells/well. Serially diluted purified anti-5T4 antibody 32G1 or the positive control PF06263507 analog-SI (maximum concentration: 20 μg/mL, 2-fold dilutions, 12 gradients) were added to each well and were incubated at 4° C. for 30 minutes. Then, after one wash with PBS, the cells were incubated with the secondary antibody Alexa Fluor® 647 anti human IgG Fcγ (Jackson ImmunoResearch Laboratories, Inc., Cat #: 109-606-170) at 4° C. for 15 minutes before flow cytometry analysis.
The cells were collected, and the mean fluorescence intensity (MFI) was determined.

The target in test [2] is T2, dog 5T4 expressed on CHO-S cells (CHO-d5T4 cells) (dog).
T2 chain: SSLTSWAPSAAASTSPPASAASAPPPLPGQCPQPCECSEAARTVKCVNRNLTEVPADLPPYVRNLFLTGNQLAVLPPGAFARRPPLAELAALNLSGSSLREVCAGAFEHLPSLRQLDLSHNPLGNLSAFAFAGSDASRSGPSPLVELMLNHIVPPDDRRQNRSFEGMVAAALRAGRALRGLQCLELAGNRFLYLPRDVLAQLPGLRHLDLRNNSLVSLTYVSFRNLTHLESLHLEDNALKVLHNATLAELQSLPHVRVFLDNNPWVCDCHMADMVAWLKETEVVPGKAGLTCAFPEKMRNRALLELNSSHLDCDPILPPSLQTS
The experiment in a line: flow cytometry, CHO-d5T4 cells. The protocol:
(§1) CHO-h5T4 cells, CHO-m5T4 cells, CHO-fas5T4 cells or CHO-d5T4 cells were transferred to a 96-well plate at a density of 2×10⁵ cells/well respectively. The anti-5T4 antibodies were added to the 96-well plate, and incubated at 4° C. for 30 min. Then, the cells were incubated with the secondary antibody anti-hlgG-Fc-Alex Flour 647 (RL1-H) (Jackson ImmunoResearch Laboratories, Inc., Cat #: 109-606-170) at 4° C. in the dark for 15 minutes before flow cytometry analysis.

For test [3], the target named is T3, human 5T4 expressed on CHO-S cells (CHO-h5T4 cells) (human, UniProt Q13641 32-355).
T3 sequence: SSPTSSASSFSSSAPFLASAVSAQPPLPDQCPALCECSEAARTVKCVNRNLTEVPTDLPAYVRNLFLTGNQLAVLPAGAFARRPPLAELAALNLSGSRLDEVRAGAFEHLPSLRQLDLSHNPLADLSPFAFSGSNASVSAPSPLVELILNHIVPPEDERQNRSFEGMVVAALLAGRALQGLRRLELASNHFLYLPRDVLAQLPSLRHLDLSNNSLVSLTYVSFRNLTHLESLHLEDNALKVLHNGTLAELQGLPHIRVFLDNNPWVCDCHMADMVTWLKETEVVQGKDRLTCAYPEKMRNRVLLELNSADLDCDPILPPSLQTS
The experiment in a line: flow cytometry, CHO-h5T4 cells. On the procedure:
as §1

Test [4] has as its target T4, mouse 5T4 expressed on CHO-S cells (CHO-m5T4 cells) (mouse, UniProt Q9Z0L0 32-361).
T4 sequence: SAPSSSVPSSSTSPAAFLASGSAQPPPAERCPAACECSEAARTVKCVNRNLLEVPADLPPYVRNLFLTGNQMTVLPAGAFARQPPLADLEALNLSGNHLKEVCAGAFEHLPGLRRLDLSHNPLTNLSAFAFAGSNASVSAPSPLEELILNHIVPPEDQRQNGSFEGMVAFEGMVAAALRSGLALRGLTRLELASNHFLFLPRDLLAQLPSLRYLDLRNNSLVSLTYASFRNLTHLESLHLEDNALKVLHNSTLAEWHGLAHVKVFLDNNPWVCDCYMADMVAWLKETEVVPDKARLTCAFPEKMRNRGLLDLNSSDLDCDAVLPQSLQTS
The experiment in a line: flow cytometry, CHO-m5T4 cells. The protocol: as §1
(A flow cytometer gives signals particle by particle.)

For test [5], the target named is T5, monkey (Macaca fascicularis) 5T4 expressed on CHO-S cells (CHO-fas5T4 cells) (monkey (Macaca fascicularis), UniProt Q4R8Y9 35-355).
T5 construct: also called monkey 5T4
T5 sequence: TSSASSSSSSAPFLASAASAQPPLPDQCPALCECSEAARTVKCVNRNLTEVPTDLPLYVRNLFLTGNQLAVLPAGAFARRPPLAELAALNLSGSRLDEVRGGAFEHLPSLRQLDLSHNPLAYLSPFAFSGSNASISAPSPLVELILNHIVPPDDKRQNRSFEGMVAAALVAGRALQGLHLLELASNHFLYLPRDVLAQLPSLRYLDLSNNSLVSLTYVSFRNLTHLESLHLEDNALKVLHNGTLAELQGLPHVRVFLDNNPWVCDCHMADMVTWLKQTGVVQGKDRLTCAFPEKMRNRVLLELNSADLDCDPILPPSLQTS
Briefly: flow cytometry, CHO-fas5T4 cells. On the procedure:
as §1

Test [6] concerns the target T6, His-tagged 5T4 protein of human (h5T4, ACRO Biosystems Inc., Cat #: TPG-H52E5) (human, UniProt Q13641 32-355).
T6 construct: Bought protein; not shown: His tag
T6 sequence (looked up): T3 sequence
The experiment in a line: SPR (Biacore 8K), antibody captured on Protein A chip, His-tagged 5T4 as analyte. On the procedure: (§2) Purified anti-5T4 antibodies were diluted to 2 μg/mL and then injected into the Biacore™ 8K biosensor at 10 μL/min for about 50 seconds to achieve a desired protein density (e.g., about 50 response units (RU)). His-tagged 5T4 protein at a concentration of 200 nM was then injected at 30 μL/min for 180 seconds. Dissociation was monitored for 400 seconds. The chip was regenerated after the last injection of each titration with Glycine (pH 2.0), 30 μL/min for 30 seconds. For ISO control, an antibody targeting an irrelevant target protein was used.
(§3) As a person of ordinary skill in the art would understand, the same method with appropriate adjustments for parameters (e.g., antibody concentration) was performed for each tested antibody.

Test [7] has as its target T7, His-tagged 5T4 protein of monkey (fas5T4, ACRO Biosystems Inc., Cat #: TPG-C52H3) (monkey, UniProt Q4R8Y9 35-355).
T7 construct: Bought protein
T7 sequence: T5 sequence
The description is as above. The protocol: as §2, §3

In test [8] the target is T8, His-tagged 5T4 protein of mouse (m5T4, ACRO Biosystems Inc., Cat #: TPG-M52H3) (mouse, UniProt Q9Z0L0 32-361, limits assumed).
T8 construct: Bought protein; not shown: His tag
T8 sequence (looked up): T4 sequence
The test is described as above. On the procedure:
as §2, §3

Test [9] concerns the target T9, h5T4-His protein (human, UniProt Q13641 32-355, limits assumed).
T9 construct: also called His-tagged human 5T4 protein; not shown: His tag
T9 sequence (looked up): T3 sequence
The experiment in a line: epitope binding assay, h5T4-His captured; binder = analyte 2; competitor (analyte 1): 31G4. On the procedure: (§4) Epitope binding assays were performed using ForteBio Octet system to determine whether two anti-5T4 antibodies target the same or overlapping epitopes. 1×HBS-EP+buffer (10 mM 4-(2-hydroxyethyl)-1-piperazineethanesulfonic acid (HEPES), 150 mM NaCl, 3 mM ethylenediaminetetraacetic acid (EDTA) and 0.05% P20, pH7.4) diluted from HBS-EP+buffer (10×) was used as the running buffer throughout the experiment. About 50 RU of h5T4-His protein was captured at a flow rate of 10 μL/min, and 200 nM of the tested antibody was injected at a flow rate of 30 μL/min to bind the ligand. Another comparison antibody was injected under the same conditions to determine whether the binding of different antibodies interfered with each other. The binding time was 180 s for each antibody.
(§5) The binding value of each antibody was obtained using Data Analysis HT 12.0. To quantify the interference of one antibody binding to another, a binding ratio was calculated to compare each pair of antibodies. The binding ratio is defined as the binding value of the second antibody (analyte 2), divided by the binding value of the first antibody (analyte 1). […] In general, antibody pairs that interfere with each other have the same or overlapping epitopes.

Test [10] deals with T9, h5T4-His protein. The experiment in a line: epitope binding assay, h5T4-His captured; binder = analyte 2; competitor (analyte 1): 32E3. The protocol:
as §4, §5

In test [11] the target is T9, h5T4-His protein. The experiment in a line: epitope binding assay, h5T4-His captured; binder = analyte 2; competitor (analyte 1): 32G1. On the procedure:
as §4, §5

Test [12] addresses T9, h5T4-His protein. The experiment in a line: epitope binding assay, h5T4-His captured; binder = analyte 2; competitor (analyte 1): 32G8. On the procedure: as §4, §5
Test [13] addresses T9, h5T4-His protein. Briefly: epitope binding assay, h5T4-His captured; binder = analyte 2; competitor (analyte 1): 35C6. On the procedure: as §4, §5
For test [14], the target named is T9, h5T4-His protein. The experiment in a line: epitope binding assay, h5T4-His captured; binder = analyte 2; competitor (analyte 1): 35B12. The protocol: as §4, §5

B1: PF06263507 analog-SI (antibody, V domains shown)
VH: EVQLVESGGGLVQPGGSLRLSCAASGYTFTNFGMNWVRQAPGKGLEWVAWINTNTGEPRYAEEFKGRFTISRDNAKNSLYLQMNSLRAEDTAVYYCARDWDGAYFFDYWGQGTLVTVSS
VL: DIQMTQSPSSLSASVGDRVTITCKASQSVSNDVAWYQQKPGKAPKLLIYFATNRYTGVPSRFSGSGYGTDFTLTISSLQPEDFATYYCQQDYSSPWTFGQGTKVEIK
notes: PF06263507 is a humanized IgG1 monoclonal antibody targeting 5T4; also called positive control PF06263507 analog-SI
In the case of B1, the binding result in [1] is listed as “binds”.

B2: 32G8 (antibody, V domains shown)
VH: QVQLQESGPGLLQPSETLSLTCFVSGASINSSGHYWGWIRQPPGKGLEWIGSIYFSGNTNYNPSLKSRVTIAVDTSKNQFSLKLSSVTAADTAVYYCVRRNGRYCSTISCYDDYWGQGTLVTVSS
VL: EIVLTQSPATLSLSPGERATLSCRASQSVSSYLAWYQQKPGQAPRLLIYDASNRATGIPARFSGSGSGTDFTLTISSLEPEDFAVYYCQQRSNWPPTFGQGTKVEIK
notes: also called anti-5T4 antibody 32G8
A word on the Kd: it is the constant that tells how readily two partners part at equilibrium. In general, koff refers to a measure of how fast the partners let go of each other. Broadly, the kon is a measure of how fast the partners come together. As to B2, the “Percentage of Positive Cells” value worked out at 62.8% in [2], 61.5% in test [3], 0.7% in test [4] and 52.6% in test [5]. Also, the binding result in test [4] is on record as “no binding”; in [8] it was “no binding (tested: 200 nM)”. In addition, the Kd is 42.7 nM in [6] and 146 nM in [7]. Moreover, the values for the koff in [6] and in test [7] were 0.00529 s⁻¹ and 0.0143 s⁻¹, respectively. The kon in test [6] was determined as 124000 M⁻¹ s⁻¹; in [7] it was 98000 M⁻¹ s⁻¹. Moreover, the binding ratio in the test with h5T4-His protein [9] came out at 0.85; in the test with h5T4-His protein [10] it was 0.04; with h5T4-His protein [11], 1.01; in the test with h5T4-His protein [12], 0.11; with h5T4-His protein [13], 1.01; with h5T4-His protein [14], 0.96.

B3: 35B12 (antibody, V domains shown)
VH: QVQLQESGPRLVKPSETLSLTCTVSGGSISSNDWSWIRQPPGKGLEWIGEISYSGITNYNPSLKSRVSISVETSKNHFSLNLSSVTAADTAVYYCATAGGSSGWYDYWFDPWGQGTLVTVSS
VL: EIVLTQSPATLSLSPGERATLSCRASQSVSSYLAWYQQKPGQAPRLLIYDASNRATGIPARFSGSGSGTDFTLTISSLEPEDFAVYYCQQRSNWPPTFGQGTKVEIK
notes: also called anti-5T4 antibody 35B12
As for B3, the “Percentage of Positive Cells” value in [2] was 76%; in [3], 78%; in test [4] it was 54.1%; in test [5] it was 52.1%. Also, the Kd came out at 122 nM in [6], 198 nM in test [7] and 72.2 nM in test [8]. Further, the values for the koff in test [6], in test [7] and in [8] were 0.0215 s⁻¹, 0.0219 s⁻¹ and 0.00366 s⁻¹, respectively. For the same molecule, the kon in test [6] was 176000 M⁻¹ s⁻¹; in test [7], 111000 M⁻¹ s⁻¹; in test [8], 50700 M⁻¹ s⁻¹. In addition, the binding ratio with h5T4-His protein [9] was determined as 0.87; in the test with h5T4-His protein [10], 0.97; in the test with h5T4-His protein [11], 0.05; in the test with h5T4-His protein [12], 0.91; with h5T4-His protein [13], 0.04; with h5T4-His protein [14] it was 0.
